Measurements published in the supplement of paper PMC10724198.
± gives the standard deviation of the averaged measurements.

Test system: Saccharomyces cerevisiae
Assay: protein stability index of tFT-peptide fusion (C-terminal peptide) (PSI (0-1 scale)); higher = more stable (slower turnover)
Details: temperature: 30 C
Procedure: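 MPS profiling in S. cerevisiae of the yeast C-terminome library: the last 12 aa of each annotated ORF are fused to the C-terminus of a sfGFP-mCherry timer, after a GGGS linker. Cells are FACS-sorted into 8 mCherry/sfGFP bins and deep-sequenced. PSI runs from 0 (unstable) to 1 (stable); wild type and das1Δ backgrounds, two technical replicates each.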

[1] = genetic background: das1 deletion

With DKIQDARNSSTK [MHP1 C-terminal 12 aa] the protein stability index [1] was 0.677 ± 0.028 and the protein stability index (genetic background: wild type) was 0.702 ± 0.041.
Work on WLKDQIIGEMTV [CAL4 C-terminal 12 aa] yielded a protein stability index [1] of 0.696 ± 0.036 and a protein stability index (genetic background: wild type) of 0.678 ± 0.025.
Work on SGVGAALCALVA [EMI2 C-terminal 12 aa] yielded a protein stability index [1] of 0.583 ± 0.0075 and a protein stability index (genetic background: wild type) of 0.602 ± 0.025.
Sequence HSRNPKRSSTTL [TRK1 C-terminal 12 aa] has a protein stability index [1] of 0.737 ± 0.034 and a protein stability index (genetic background: wild type) of 0.767 ± 0.069.
For GWLQDSNFTKYL [FUN19 C-terminal 12 aa], the protein stability index [1] was 0.6978 ± 0.0056 and the protein stability index (genetic background: wild type) was 0.808 ± 0.13.
Sequence NKNLHGINTNEF [TRE1 C-terminal 12 aa] has a protein stability index [1] of 0.7067 ± 0.0039 and a protein stability index (genetic background: wild type) of 0.6665 ± 0.0019.
IVILIFDRLLSN [YGL081W C-terminal 12 aa] gave a protein stability index [1] of 0.394 ± 0.021 and a protein stability index (genetic background: wild type) of 0.425 ± 0.03.
“RSIIKLPVTKGL [YBL008W-A C-terminal 12 aa]” showed a protein stability index [1] of 0.6946 ± 0.0058 and a protein stability index (genetic background: wild type) of 0.6596 ± 0.0024.
IVIQVNNPLTRD [DOG2 C-terminal 12 aa] was tested, and the protein stability index [1] was 0.692 ± 0.099 and the protein stability index (genetic background: wild type) was 0.643 ± 0.0052.
Sequence QRCCECASGNGC [YDR442W C-terminal 12 aa] has a protein stability index [1] of 0.6843 ± 0.0013 and a protein stability index (genetic background: wild type) of 0.668 ± 0.035.
Work on TLGEVINELNNK [VAM6 C-terminal 12 aa] yielded a protein stability index [1] of 0.7226 ± 0.0022 and a protein stability index (genetic background: wild type) of 0.676 ± 0.011.
Work on ERTKLREKLEII [PXA1 C-terminal 12 aa] yielded a protein stability index [1] of 0.7064 ± 0.0059 and a protein stability index (genetic background: wild type) of 0.677 ± 0.077.
LRLKYNDANTKL [VTC1 C-terminal 12 aa] gave a protein stability index [1] of 0.68 ± 0.011 and a protein stability index (genetic background: wild type) of 0.6552 ± 0.0047.
Work on YNSLKKGASKSK [CNL1 C-terminal 12 aa] yielded a protein stability index [1] of 0.714 ± 0.021 and a protein stability index (genetic background: wild type) of 0.74 ± 0.071.
LLQHPWLDAHII [STE11 C-terminal 12 aa] showed a protein stability index [1] of 0.722 ± 0.028 and a protein stability index (genetic background: wild type) of 0.7253 ± 0.0019.
ESEKELYNATRA [NHP6B C-terminal 12 aa] was tested, and the protein stability index [1] was 0.68817 ± 0.00058 and the protein stability index (genetic background: wild type) was 0.716 ± 0.034.
Work on DSEIEMLKGRLQ [EPO1 C-terminal 12 aa] yielded a protein stability index [1] of 0.6666 ± 0.002 and a protein stability index (genetic background: wild type) of 0.694 ± 0.026.
TLSYIRVHKLVK [TYC1 C-terminal 12 aa] was tested, and the protein stability index [1] was 0.647 ± 0.019 and the protein stability index (genetic background: wild type) was 0.493 ± 0.015.
With “ASFAKDVISLPE [YER046W-A C-terminal 12 aa]” the protein stability index [1] was 0.7202 ± 0.00094 and the protein stability index (genetic background: wild type) was 0.699 ± 0.079.
For PRPACGVIGLTN [SOD1 C-terminal 12 aa], the protein stability index [1] was 0.713 ± 0.03 and the protein stability index (genetic background: wild type) was 0.726 ± 0.008.
PVIYGLPIKFVS [ESP1 C-terminal 12 aa] showed a protein stability index [1] of 0.7014 ± 0.0052 and a protein stability index (genetic background: wild type) of 0.389 ± 0.0063.
Work on RPPRTRIPRLRR [YKR047W C-terminal 12 aa] yielded a protein stability index [1] of 0.7572 ± 0.0045 and a protein stability index (genetic background: wild type) of 0.708 ± 0.036.
With NPTALEKGIKDL [TRX3 C-terminal 12 aa] the protein stability index [1] was 0.714 ± 0.025 and the protein stability index (genetic background: wild type) was 0.69 ± 0.016.
Work on TNIIRETLKSLN [ATP22 C-terminal 12 aa] yielded a protein stability index [1] of 0.786 ± 0.1.
Work on TKEYMDSIRSAK [VPS45 C-terminal 12 aa] yielded a protein stability index [1] of 0.687 ± 0.023 and a protein stability index (genetic background: wild type) of 0.766 ± 0.099.
Sequence STKFEEDQVAPL [ICP55 C-terminal 12 aa] has a protein stability index [1] of 0.679 ± 0.007 and a protein stability index (genetic background: wild type) of 0.686 ± 0.029.
Sequence KAPKILYKRKGY [HPA2 C-terminal 12 aa] has a protein stability index [1] of 0.685 ± 0.024 and a protein stability index (genetic background: wild type) of 0.675 ± 0.036.
VIAQIDELFEGY [THG1 C-terminal 12 aa] was tested, and the protein stability index [1] was 0.726 ± 0.0083 and the protein stability index (genetic background: wild type) was 0.711 ± 0.019.
IEQETGSEEKQE [SBP1 C-terminal 12 aa] was tested, and the protein stability index [1] was 0.6781 ± 0.0035 and the protein stability index (genetic background: wild type) was 0.7729 ± 0.0054.
RKEIRKQKRATF [MRPS28 C-terminal 12 aa] showed a protein stability index [1] of 0.709 ± 0.059 and a protein stability index (genetic background: wild type) of 0.734 ± 0.028.
In the case of HAEFHARNLGLI [YJL068C C-terminal 12 aa], the protein stability index [1] is reported as 0.7036 ± 0.0021 and the protein stability index (genetic background: wild type) is reported as 0.686 ± 0.023.
DQPFYKKMFGKK [HXT3 C-terminal 12 aa] was tested, and the protein stability index [1] was 0.6926 ± 0.0016 and the protein stability index (genetic background: wild type) was 0.698 ± 0.042.
EWEEKQGMDFVR [GPN2 C-terminal 12 aa] was tested, and the protein stability index [1] was 0.7083 ± 0.0027 and the protein stability index (genetic background: wild type) was 0.685 ± 0.0095.
RKEKDPETYLDK [ERG8 C-terminal 12 aa] was tested, and the protein stability index [1] was 0.691 ± 0.023 and the protein stability index (genetic background: wild type) was 0.684 ± 0.01.
In the case of KYTGVYRSSWHG [YLR125W C-terminal 12 aa], the protein stability index [1] is reported as 0.701 ± 0.0013 and the protein stability index (genetic background: wild type) is reported as 0.6925 ± 0.0057.
TISNPFGDHNKI [LSB5 C-terminal 12 aa] was tested, and the protein stability index [1] was 0.727 ± 0.034 and the protein stability index (genetic background: wild type) was 0.738 ± 0.099.
“MNRNKSDVPYLQ [YER053C-A C-terminal 12 aa]” gave a protein stability index [1] of 0.702 ± 0.014 and a protein stability index (genetic background: wild type) of 0.658 ± 0.027.
FVSSDPGLTQWL [HNT2 C-terminal 12 aa] gave a protein stability index [1] of 0.745 ± 0.014 and a protein stability index (genetic background: wild type) of 0.713 ± 0.0078.
Sequence ILEYQKRRSFIK [IRC3 C-terminal 12 aa] has a protein stability index [1] of 0.7238 ± 0.0049 and a protein stability index (genetic background: wild type) of 0.652 ± 0.021.
For ELFTILHDLTAA [TPS3 C-terminal 12 aa], the protein stability index [1] was 0.718 ± 0.086 and the protein stability index (genetic background: wild type) was 0.6612 ± 0.005.
For LTEILSKVFNRL [DUG2 C-terminal 12 aa], the protein stability index [1] was 0.702 ± 0.018 and the protein stability index (genetic background: wild type) was 0.678 ± 0.033.
Work on DHSNAFESILIF [TRS130 C-terminal 12 aa] yielded a protein stability index [1] of 0.6353 ± 0.0054 and a protein stability index (genetic background: wild type) of 0.684 ± 0.093.
